Measurements as given in patent US20070015230A1 (AMERICAN NATIONAL RED CROSS, published 2007).

Biological target: T1, Human CRP (Novagen) (human, UniProt P02741 19-224)
T1 construct: also called C-reactive protein
T1 sequence (looked up): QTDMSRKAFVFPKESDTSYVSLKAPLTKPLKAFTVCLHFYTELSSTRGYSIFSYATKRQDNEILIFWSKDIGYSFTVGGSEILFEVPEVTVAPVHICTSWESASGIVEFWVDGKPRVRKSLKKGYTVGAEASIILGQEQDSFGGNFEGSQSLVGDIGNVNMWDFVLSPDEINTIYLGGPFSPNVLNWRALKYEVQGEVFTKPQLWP
Assay: Bead Blot of library beads loaded from CRP-spiked whole blood, detected with an anti-CRP antibody, confirmed by re-incubation

Question: Does GNQKWG (also called CRP ligand) bind?
Answer: binds
